Test results as given in article PMC6813330.

Molecular target: IbpS (iron-binding protein secreted), translocated region of D. dadantii IbpS (residues 28-372) (Dickeya dadantii 3937)
Test: SEC-MALS; Superdex S200 5/150 GL increase; 25 µl IbpS at 10 mg/ml in 50 mM Tris-Cl pH 7.0, 100 mM NaCl

In the case of “IbpS (iron-binding protein secreted), translocated region of D. dadantii IbpS (residues 28-372) (natural protein)”, the stoichiometry N is reported as 2.
